These results are taken from patent publication US20220144936A1.

In experiment [1] the target is recombinant human IL17A protein (human) (UniProt Q16552). Kind of experiment: ELISA: IL17A coated at different concentrations, antibody fixed at 2 µg/mL, anti-human IgG Fc/HRP; EC50 is on the antigen concentration. On the technique in general: An ELISA detects its analyte on a solid surface through an enzyme-linked reagent.
In experiment [2] the target is recombinant human IL17A/F dimer protein (SinoBiological, Inc., CT047-HNAE) (human) (UniProt Q16552). Kind of experiment: ELISA: IL17A/F coated at different concentrations, antibody fixed at 2 µg/mL, anti-human IgG Fc/HRP; EC50 is on the antigen concentration.
Sequence of recombinant human IL17A/F dimer protein (SinoBiological, Inc., CT047-HNAE) (human) (Q16552 24-155 limits assumed, chain 1 of 2): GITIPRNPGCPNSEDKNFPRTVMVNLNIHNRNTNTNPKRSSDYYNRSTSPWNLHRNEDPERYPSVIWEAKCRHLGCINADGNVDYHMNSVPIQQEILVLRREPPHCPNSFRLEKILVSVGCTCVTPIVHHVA
Sequence of recombinant human IL17A/F dimer protein (SinoBiological, Inc., CT047-HNAE) (human) (Q96PD4 31-163 limits assumed, chain 2 of 2, further chain): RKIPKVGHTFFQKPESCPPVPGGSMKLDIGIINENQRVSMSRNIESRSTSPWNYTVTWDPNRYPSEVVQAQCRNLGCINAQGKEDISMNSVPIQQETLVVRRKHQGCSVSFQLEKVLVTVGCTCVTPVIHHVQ
The target in experiment [3] is recombinant human IL17A protein (human) (UniProt Q16552). Put plainly: cell-based or functional assay.
Experiment [4] deals with recombinant human IL17A/F dimer protein (SinoBiological, Inc., CT047-HNAE) (human) (UniProt Q16552). Put plainly: cell-based or functional assay.
The target in experiment [5] is recombinant human IL17A protein (human) (UniProt Q16552). Put plainly: Octet (BLI), biotinylated IL17A, antibody 0.90-13.9 nM. In general terms: BLI is a label-free optical method that tracks binding on a fibre tip over time.
For experiment [6], the target named is recombinant human IL17A/F dimer protein (SinoBiological, Inc., CT047-HNAE) (human) (UniProt Q16552). Put plainly: Octet (BLI), biotinylated IL17A/F, antibody 0.90-13.9 nM.
Experiment [7] has the same target. Put plainly: competition ELISA: IL17RA-Fc coated (competitor), IL17A/F-Biotin at 0.8 µg/mL, antibody varied.
Experiment [8] addresses recombinant human IL17A protein (human) (UniProt Q16552). Put plainly: competition ELISA: IL17A coated, competitor IL17RA-His-biotin at 2 µg/mL, antibody varied.

Sequence of recombinant human IL17A protein (human) (Q16552 24-155 limits assumed): as the sequence (Q16552 24-155 limits assumed, chain 1 of 2) above

In the case of “COSENTYX biosimilar (SinoCelltech Co., Ltd.) (antibody)”, the EC50 in experiment [1] was 0.0748 µg/mL; in experiment [2], 0.0639 µg/mL.
On to COSENTYX (Norvatis, SHM12) (antibody), for which, in experiment [3], the EC50 (µg/mL), blocking IL17A-induced IL6 secretion of HFF cells worked out at 0.22 µg/mL and the Maximum neutralization rate (%), IL17A-induced IL6 secretion of HFF cells is 51.6%. Besides, in experiment [4], the EC50 (µg/mL), blocking IL17A/F-induced IL6 secretion of HFF cells worked out at 2.25 µg/mL and the Maximum neutralization rate (%), IL17A/F-induced IL6 secretion of HFF cells stood at 79.5%. Further, the Kd in experiment [5] stood at 0.0955 nM. For the same substance, in experiment [6], the Kd amounted to 1.1 nM.
For the substance “Taltz biosimilar (SinoCelltech Co., Ltd.) (antibody)”, in experiment [3], the EC50 of blocking IL17A-induced IL-6 secretion of HFF cells turned out to be 0.247 µg/mL and the maximum inhibition rate of IL17A-induced IL-6 secretion of HFF cells worked out at 97.3%. For the same substance, the maximum inhibition rate in experiment [7] turned out to be 75%.
As to Taltz (Eli Lilly) (antibody), in experiment [3], the EC50 (µg/mL), blocking IL17A-induced IL6 secretion of HFF cells stood at 0.19 µg/mL and the Maximum neutralization rate (%), IL17A-induced IL6 secretion of HFF cells is 95.9%. Besides, in experiment [4], the EC50 (µg/mL), blocking IL17A/F-induced IL6 secretion of HFF cells worked out at 1.1 µg/mL and the Maximum neutralization rate (%), IL17A/F-induced IL6 secretion of HFF cells is 76.3%. In addition, in experiment [8], the IC50 was determined as 0.5 µg/mL and the maximum inhibition rate stood at 89.5%.

Broadly, the EC50 is the concentration that produces a half-maximal response. What is called Kd is the equilibrium constant for the complex coming apart. The IC50 is the midpoint of a concentration-inhibition curve.
